Source: patent publication WO1989007452A1

Biological target: Campath-1 antigen (partially purified, obtained from a glycolipid extract from human spleen) (human) (UniProt P31358)
Assay: direct binding ELISA on partially purified Campath-1 antigen coated on microtitre wells; detected with biotin-labelled anti-rat IgG2b; antibody concentration at 50% binding

EC50: 1.01 µg/mL
Substance: RaVHCAMP-RaIgG2B (cloned rat heavy chain variable domain of YTH 34.5HL on rat IgG2b constant domains, with rat kappa light chain) (from UniProt P20761 1-333) (antibody)
